In US20160319321:
“And” between values parts separate entries of the source, which are not always exact repeats. Equal values may be shown once.

Columns and labels:
[1] = target: T1, Lys(Dnp)-ADEGDR-HAEGT-Lys(Abz)amide
T1 chain: KADEGDRHAEGTK

[2] = target: T2, Lys(Dnp)-DEGDR-HAEGT-Lys(Abz)amide
T2 chain: KDEGDRHAEGTK

[3] = target: T3, Lys(Dnp)-ELGDR-HGEGT-Lys(Abz)amide
T3 chain: KELGDRHGEGTK

[4] = target: T4, Lys(Dnp)-DSGDR-QGTFT-Lys(Abz)amide
T4 chain: KDSGDRQGTFTK

[5] = target: T5, Lys(Dnp)-DGGDR-EGTFT-Lys(Abz)amide
T5 chain: KDGGDREGTFTK

[6] = target: T6, Lys(Dnp)-DSGDR-HGEGT-Lys(Abz)amide
T6 chain: KDSGDRHGEGTK

[7] = target: T7, Lys(Dnp)-EYGDR-EGTFT-Lys(Abz)amide
T7 chain: KEYGDREGTFTK

[8] = target: T8, Lys(Dnp)-DDEGDR-HAEGT-Lys(Abz)amide
T8 chain: KDDEGDRHAEGTK

[9] = target: T9, Lys(Dnp)-EYGDR-HGEGT-Lys(Abz)amide
T9 chain: KEYGDRHGEGTK

B1: bovine Enterokinase light chain variant (C112A, L134K, I135K) (protein)
chain: IVGGSDSREGAWPWVVALYFDDQQVCGASLVSRDWLVSAAHCVYGRNMEPSKWKAVLGLHMASNLTSPQIETRLIDQIVINPHYNKRRKNNDIAMMHLEMKVNYTDYIQPIALPEENQVFPPGRICSIAGWGAKKYQGSTADVLQEADVPLLSNEKCQQQMPEYNITENMVCAGYEAGGVDSCQGDSGGPLMCQENNRWLLAGVTSFGYQCALPNRPGVYARVPRFTEWIQSFLH
- Activity (%) [1]: 100%
- Activity (%) [2]: 1100% and 942%
- Activity (%) [3]: 502%
- Activity (%) [4]: 125%
- Activity (%) [5]: 322%
- Activity (%) [6]: 282%
- Activity (%) [7]: 353%
- Activity (%) [8]: 113%
- Activity (%) [9]: 338%
